PMC8490154, “Mass-sensitive particle tracking to elucidate the membrane-associated MinDE reaction cycle” (Nature Methods, 2021)
Values joined by “and” are separate entries in the source; they are usually repeats but may differ in a detail not shown here. Equal values may be shown once. Read-outs that look alike come from different tables or passages of the source.

Tests used:
MinD (Escherichia coli) [1] = molecular target: MinD (Escherichia coli) (UniProt P0AEZ3); assay: mass-sensitive particle tracking (MSPT, iSCAT) on a supported lipid bilayer; MinD or MinD D40A alone, 50-200 nM, 0.5 mM ATP, Min buffer, SLB of 70 mol% DOPC / 30 mol% DOPG, room temperature (23 ± 2 °C); particle densities 0.03-0.8 µm^-2; monomers (33 kDa) not quantitatively detectable
MinD (Escherichia coli) [2] = molecular target: MinD (Escherichia coli) (UniProt P0AEZ3); assay: as above; remark: listed apart in the source
[3] = molecular target: the molecule itself; assay: as above
[4] = molecular target: the molecule itself; assay: mass-sensitive particle tracking (MSPT, iSCAT) on a supported lipid bilayer; co-reconstitution of equimolar MinD and MinE, 50-200 nM each, 0.5 mM ATP, Min buffer, SLB of 70 mol% DOPC / 30 mol% DOPG, room temperature; particle densities 0.1-0.8 µm^-2

Molecule: MinD (from UniProt P0AEZ3 1-270) (natural protein)
- stoichiometry N (MinD (Escherichia coli) [1]): 3 and 4
- stoichiometry N (MinD (Escherichia coli) [2]): 2

B1: MinD D40A (natural protein, Escherichia coli, UniProt P0AEZ3 1-270, looked up)
chain: MARIIVVTSGKGGVGKTTSSAAIATGLAQKGKKTVVIDFAIGLRNLDLIMGCERRVVYDFVNVIQGDATLNQALIKDKRTENLYILPASQTRDKDALTREGVAKVLDDLKAMDFEFIVCDSPAGIETGALMALYFADEAIITTNPEVSSVRDSDRILGILASKSRRAENGEEPIKEHLLLTRYNPGRVSRGDMLSMEDVLEILRIKLVGVIPEDQSVLRASNQGEPVILDINADAGKAYADTVERLLGEERPFRFIEEEKKGFLKRLFGG
notes: ATPase MinD of the Escherichia coli Min system with D40A (impaired ATP hydrolysis); A purification tag is probably present (surmise); also called D40A mutant; MinD mutant (D40A)
- stoichiometry N [3]: 2 and 4

B2: MinE (natural protein, Escherichia coli, UniProt P0A734 1-88, looked up)
chain: MALLDFFLSRKKNTANIAKERLQIIVAERRRSDAEPHYLPQLRKDILEVICKYVQIDPEMVTVQLEQKDGDISILELNVTLPEAEELK
notes: MinE of the Escherichia coli Min system; A purification tag is probably present (surmise)
- binding result [4]: binds
